Measurements as given in doi:10.1101/2022.02.01.475276.

Experiments:
Test in all cases: EMSA
[1] = biological target: NPAS4;ARNT2 (NPAS4 partner) (mouse;mouse, UniProt Q8BGD7;Q61324 1-329;1-481, |)
[2] = biological target: SIM1;ARNT2 (SIM1 partner) (;, UniProt P81133;Q9HBZ2 1-348;1-455, |)
[3] = biological target: HIF1a;ARNT (HIFa partner) (human?;human, UniProt Q16665;P27540 1-375;1-503, |)
[4] = biological target: HIF2a;ARNT (HIFa partner) (human;human, UniProt Q99814;P27540 1-353;1-503, |)
Chain of HIF2a;ARNT (HIFa partner) (Q99814 1-353, chain 1 of 2): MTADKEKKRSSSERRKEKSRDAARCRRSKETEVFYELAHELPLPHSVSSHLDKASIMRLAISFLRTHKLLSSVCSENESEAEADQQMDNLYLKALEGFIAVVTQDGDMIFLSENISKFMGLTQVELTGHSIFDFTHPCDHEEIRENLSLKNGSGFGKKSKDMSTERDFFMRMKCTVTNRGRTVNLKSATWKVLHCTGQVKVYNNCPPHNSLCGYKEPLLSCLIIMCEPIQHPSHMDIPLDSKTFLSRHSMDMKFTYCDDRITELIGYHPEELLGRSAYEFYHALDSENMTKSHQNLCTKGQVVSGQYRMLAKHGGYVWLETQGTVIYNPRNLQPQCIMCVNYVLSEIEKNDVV
Chain of HIF2a;ARNT (HIFa partner) (P27540 1-503, chain 2 of 2): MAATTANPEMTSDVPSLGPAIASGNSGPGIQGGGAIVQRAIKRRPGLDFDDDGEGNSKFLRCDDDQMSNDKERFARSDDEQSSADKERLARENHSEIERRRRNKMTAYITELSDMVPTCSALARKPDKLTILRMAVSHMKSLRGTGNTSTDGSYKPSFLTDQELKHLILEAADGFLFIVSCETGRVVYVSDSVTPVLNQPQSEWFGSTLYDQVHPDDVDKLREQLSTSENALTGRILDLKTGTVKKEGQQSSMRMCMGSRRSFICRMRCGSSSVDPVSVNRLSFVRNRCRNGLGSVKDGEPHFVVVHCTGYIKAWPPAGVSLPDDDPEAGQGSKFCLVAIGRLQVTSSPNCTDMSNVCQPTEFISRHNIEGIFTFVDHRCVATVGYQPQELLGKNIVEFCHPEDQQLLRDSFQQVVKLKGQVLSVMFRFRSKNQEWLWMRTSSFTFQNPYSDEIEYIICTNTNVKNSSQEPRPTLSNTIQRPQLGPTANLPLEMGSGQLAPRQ

Chain of SIM1;ARNT2 (SIM1 partner) (P81133 1-348, chain 1 of 2): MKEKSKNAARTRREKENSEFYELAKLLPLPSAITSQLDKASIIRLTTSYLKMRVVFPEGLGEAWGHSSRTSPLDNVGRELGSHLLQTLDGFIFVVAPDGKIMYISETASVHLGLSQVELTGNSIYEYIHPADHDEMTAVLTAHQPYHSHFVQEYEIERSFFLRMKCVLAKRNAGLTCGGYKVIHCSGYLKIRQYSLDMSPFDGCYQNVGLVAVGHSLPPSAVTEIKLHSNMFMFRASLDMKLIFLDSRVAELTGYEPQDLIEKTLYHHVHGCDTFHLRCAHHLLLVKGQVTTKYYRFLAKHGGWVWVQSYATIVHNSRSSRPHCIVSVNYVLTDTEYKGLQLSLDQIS
Chain of SIM1;ARNT2 (SIM1 partner) (Q9HBZ2 1-455, chain 2 of 2): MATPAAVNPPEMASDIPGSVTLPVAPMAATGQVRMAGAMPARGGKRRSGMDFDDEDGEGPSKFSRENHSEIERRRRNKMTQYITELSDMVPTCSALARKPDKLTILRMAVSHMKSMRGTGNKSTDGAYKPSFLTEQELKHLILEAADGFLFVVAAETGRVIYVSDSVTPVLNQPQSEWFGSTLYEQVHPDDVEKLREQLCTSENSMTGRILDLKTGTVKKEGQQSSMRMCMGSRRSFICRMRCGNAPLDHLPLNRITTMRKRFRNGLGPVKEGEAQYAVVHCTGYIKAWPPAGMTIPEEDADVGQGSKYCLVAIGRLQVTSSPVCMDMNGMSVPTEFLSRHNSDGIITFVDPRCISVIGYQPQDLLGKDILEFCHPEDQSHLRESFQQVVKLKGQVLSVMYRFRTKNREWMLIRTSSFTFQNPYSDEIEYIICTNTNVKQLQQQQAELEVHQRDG
Chain of NPAS4;ARNT2 (NPAS4 partner) (Q8BGD7 1-329, chain 1 of 2): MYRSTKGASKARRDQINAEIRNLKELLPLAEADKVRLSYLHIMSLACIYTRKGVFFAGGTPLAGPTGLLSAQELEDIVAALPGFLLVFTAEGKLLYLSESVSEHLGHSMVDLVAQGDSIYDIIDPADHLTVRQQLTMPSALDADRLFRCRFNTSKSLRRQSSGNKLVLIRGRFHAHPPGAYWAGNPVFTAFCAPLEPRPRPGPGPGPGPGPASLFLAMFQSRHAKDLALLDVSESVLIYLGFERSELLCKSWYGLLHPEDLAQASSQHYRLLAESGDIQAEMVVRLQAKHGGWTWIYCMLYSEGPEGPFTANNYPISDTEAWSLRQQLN
Chain of NPAS4;ARNT2 (NPAS4 partner) (Q61324 1-481, chain 2 of 2): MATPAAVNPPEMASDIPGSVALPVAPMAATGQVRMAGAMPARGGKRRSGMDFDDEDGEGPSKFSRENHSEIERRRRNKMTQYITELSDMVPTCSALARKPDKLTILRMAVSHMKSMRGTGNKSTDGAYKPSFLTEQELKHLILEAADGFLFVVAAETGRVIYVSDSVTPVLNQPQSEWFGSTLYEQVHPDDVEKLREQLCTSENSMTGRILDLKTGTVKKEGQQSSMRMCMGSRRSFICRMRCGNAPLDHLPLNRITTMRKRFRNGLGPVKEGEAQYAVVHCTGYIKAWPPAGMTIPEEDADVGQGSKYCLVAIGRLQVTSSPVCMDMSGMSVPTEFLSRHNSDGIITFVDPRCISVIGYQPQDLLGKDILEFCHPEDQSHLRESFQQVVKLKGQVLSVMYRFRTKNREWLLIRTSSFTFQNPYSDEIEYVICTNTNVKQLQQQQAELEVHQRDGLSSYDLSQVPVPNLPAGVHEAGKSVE
Chain of HIF1a;ARNT (HIFa partner) (P27540 1-503, chain 2 of 2, other chains not shown): as the sequence (P27540 1-503, chain 2 of 2) above

B1: NRE (dsDNA)
DNA 1: AAATGAGTCGTGACCAAAAATT
DNA 2: AATTTTTGGTCACGACTCATTT
binding result [1]: binds

B2: SRE (dsDNA)
DNA 1: AAAAGGTACGTGACCAAAAAGA
DNA 2: TCTTTTTGGTCACGTACCTTTT
binding result [2]: binds

B3: HRE (C/C) (dsDNA)
DNA 1: AGGCTGCGTACGTGCGGGTCGT
DNA 2: ACGACCCGCACGTACGCAGCCT
binding signal [3]: ~2 fold higher affinity than HIF2a/ARNT
binding signal [4]: ~1 reference (HIF1a/ARNT about 2-fold higher)
